{"source": "paper PMC6467980", "key": {"P04501": {"system": "P04501", "assay": "SEC-MALS; Superdex 200 Increase 10/300 GL, 1X TBS, 1 mL/min; 100 µL at 2.5-2.8 mg/mL in PBS with 5% glycerol; native (oxidized) or reduced with DTT (1.6 mM, 50 °C 10 min, then a further 1.6 mM)"}, "[1]": {"target": "recombinant human desmoglein 2 (human) (UniProt Q14126)", "assay": "SPR; rhDSG2 amine-coupled to a CM5 chip (6000 RU), junction openers flowed; Biacore 3000, 25 °C; 10 mM HEPES, 150 mM NaCl, 0.005% surfactant P20, 2 mM CaCl2 pH 7.4; 15 µl/min; 1:1 Langmuir fit; apparent (avidity)"}, "[2]": {"target": "recombinant human desmoglein 2 (human) (UniProt Q14126)"}, "[3]": {"target": "JO-4 (Adenovirus serotype 3 (Ad3)) (UniProt P04501)", "assay": "SEC-MALS; Superdex 200 Increase 10/300 GL, 1X TBS, 1 mL/min; 100 µL at 2.5-2.8 mg/mL in PBS with 5% glycerol; native (oxidized) or reduced with DTT (1.6 mM, 50 °C 10 min, then a further 1.6 mM)"}, "[4]": {"target": "recombinant human desmoglein 2 (human) (UniProt Q14126)", "remark": "listed apart in the source"}, "[5]": {"target": "JO-4 (Adenovirus serotype 3 (Ad3)) (UniProt P04501)", "assay": "SPR; JO-4 or GB7_(V239D) amine-coupled to a CM5 chip (approximately 6000 RU), rhDSG2 flowed (17.4 nM to 0.87 nM, triplicate); Biacore 3000, 25 °C; 10 mM HEPES, 150 mM NaCl, 0.005% surfactant P20, 2 mM CaCl2 pH 7.4; 15 µl/min; 1:1 Langmuir fit; apparent (avidity)"}, "[6]": {"target": "GB7_(V239D) (Adenovirus serotype 3 (Ad3)) (UniProt P04501)", "assay": "SPR; JO-4 or GB7_(V239D) amine-coupled to a CM5 chip (approximately 6000 RU), rhDSG2 flowed (17.4 nM to 0.87 nM, triplicate); Biacore 3000, 25 °C; 10 mM HEPES, 150 mM NaCl, 0.005% surfactant P20, 2 mM CaCl2 pH 7.4; 15 µl/min; 1:1 Langmuir fit; apparent (avidity)"}}}
{"substance": "JO-4", "values": [{"measurement": "% total as Aggregate (Agg.), oxidized", "setting": "P04501", "value": 90, "unit": "%"}, {"measurement": "% total as Aggregate (Agg.), reduced", "setting": "P04501", "value": 94, "unit": "%"}]}
{"substance": "JO-4 (from UniProt P04501 127-319) (designed binder)", "values": [{"measurement": "Kd", "setting": "[1]", "value": 11.4, "unit": "nM"}, {"measurement": "koff", "setting": "[1]", "value": 0.00264, "unit": "s⁻¹"}, {"measurement": "kon", "setting": "[1]", "value": 232000, "unit": "M⁻¹ s⁻¹"}, {"measurement": "VIA IC50: inhibition of entry of Ad3-GFP reporter virus into HeLa cells (blocks Ad3 virus on DSG2)", "setting": "[2]", "value": 0.067, "unit": "µg/mL"}, {"measurement": "% total as Monomer (M), oxidized", "setting": "[3]", "value": 4, "unit": "%"}, {"measurement": "% total as Monomer (M), reduced", "setting": "[3]", "value": 3, "unit": "%"}, {"measurement": "% total as Multimer (Multi.), oxidized", "setting": "[3]", "value": 4, "unit": "%"}, {"measurement": "% total as Multimer (Multi.), reduced", "setting": "[3]", "value": "< 0.5", "unit": "%"}, {"measurement": "% total as Trimer (T), oxidized", "setting": "[3]", "value": 2, "unit": "%"}, {"measurement": "% total as Trimer (T), reduced", "setting": "[3]", "value": 2, "unit": "%"}, {"measurement": "% total as Trimer-Dimer (T-D), oxidized", "setting": "[3]", "value": "< 0.5", "unit": "%"}, {"measurement": "% total as Trimer-Dimer (T-D), reduced", "setting": "[3]", "value": 1, "unit": "%"}, {"measurement": "stoichiometry N", "setting": "[3]", "value": 3}, {"measurement": "DSG2 shedding (fold over PBS treated at 48 h), ELISA of shed DSG2", "setting": "[4]", "value": 1.44, "unit": "fold"}]}
{"substance": "recombinant human desmoglein 2 (from UniProt Q14126 50-609) (natural protein)", "values": [{"measurement": "Kd", "setting": "[5]", "value": 0.58, "unit": "nM"}, {"measurement": "koff", "setting": "[5]", "value": 0.00046, "unit": "s⁻¹"}, {"measurement": "kon", "setting": "[5]", "value": 790000, "unit": "M⁻¹ s⁻¹"}, {"measurement": "Kd", "setting": "[6]", "value": 1.19, "unit": "nM"}, {"measurement": "koff", "setting": "[6]", "value": 0.00075, "unit": "s⁻¹"}, {"measurement": "kon", "setting": "[6]", "value": 630000, "unit": "M⁻¹ s⁻¹"}]}
